From patent publication US20220144937A1 (JIANGSU HENGRUI MEDICINE, published 2022)

Key:
[1] = molecular target: T1, human IL-5 with his-tag (rhIL-5-his) (human, UniProt P05113 20-134); experiment: competition ELISA: IL-5 coated, biotin-IL-5Rα (10 µg/ml) as competitor, antibody diluted
T1 construct: It was expressed in HEK293 and purified from the supernatant; also called HuIL-5; recombinant human IL-5
T1 sequence: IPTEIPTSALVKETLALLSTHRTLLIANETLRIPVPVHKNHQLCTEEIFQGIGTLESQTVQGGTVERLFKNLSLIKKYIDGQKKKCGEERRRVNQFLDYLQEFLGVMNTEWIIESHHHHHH
Procedure: To identify the ability of IL-5 antibody to block IL-5 from binding to the extracellular region of recombinantly expressed IL-5α receptor protein, IL-5 (5 μg/ml in PBS) was coated on an ELISA plate and incubated at 37° C. for 1 hour; the liquid was removed, 200 μl/well of 5% skimmed milk blocking solution diluted with PBS was added, and incubated for 2.5 hours in a 37° C. incubator for blocking. After blocking, the blocking solution was removed and the plate was washed with PBST buffer (pH 7.4 PBS comprising 0.05% Tween-20) for 5 times; 25 μl of 10 μg/ml IL-5Rα (in 1% BSA) labeled by a biotin labeling kit (Tojin Chemical, LK03) was added, and then 25 μl of gradient-diluted antibody was added (the antibody competed with IL-5Rα for the binding with IL-5) and incubated at 37° C. for 1 hour. After the incubation, the reaction solution in the microtiter plate was removed, the plate was washed for 5 times with PBST, added with 50 μl/well of Streptavidin-Peroxidase Polymer (Sigma, 52438-250UG) diluted with sample dilution solution at 1:600 and incubated for 1 hour at 37° C.

[2] = molecular target: T1, human IL-5 with his-tag (rhIL-5-his); experiment: Biacore
Procedure: (§1) The affinity of the murine IL-5 antibody to be tested with human IL-5 was measured by Biacore T200 (GE) instrument.
(§2) The protein A biosensor chip was used to affinity capture of the molecules to be tested, and then the antigen (recombinant human and cyno IL-5 prepared in Example 1) flowed through the surface of the chip, and the reaction signal was detected in real time with the Biacore T200 instrument to obtain the binding and dissociation curves. After the dissociation of each experimental cycle was completed, the biosensor chip was washed and regenerated with glycine-hydrochloric acid regeneration solution (pH 1.5). BIA evaluation version 4.1 GE software was used to fit the data against (1:1) Langmuir model, and the affinity value was obtained and shown in Table 13.

[3] = molecular target: T2, cyno IL-5 with his-tag (cyno (paragraph 156 says rhesus), UniProt P48093 20-134 (rhesus entry)); experiment: Biacore T200, antibody captured on protein A chip, antigen in flow, 1:1 Langmuir
T2 construct: also called rhesus IL-5 with His-tag; monkey IL-5
T2 sequence: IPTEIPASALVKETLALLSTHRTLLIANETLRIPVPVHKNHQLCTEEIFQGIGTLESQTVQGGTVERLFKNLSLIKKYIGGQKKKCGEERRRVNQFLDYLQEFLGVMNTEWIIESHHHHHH
Procedure: as §1, §2

[4] = molecular target: T1, human IL-5 with his-tag (rhIL-5-his); experiment: as above
Procedure: as §1, §2

IC50 [1]: 0.4 µg/mL
Kd [2]: 0.0383 nM
Kd [3]: 0.277 nM
Kd [4]: 0.0383 nM
B1: mAb1706 (antibody, V domains shown)
VH: EVQLVESGGGLVQPGRSLKLSCAASGFTFSHYYMAWVRQAPKKGLEWVTSINYEGNSAYYGDSVKGRFTISRDNAKSTLYLQMDSLRSEDTATYYCATETLRESLDYWGQGVMVTVSS
VL: DIQMTQSPSSMSVSLGDRVTITCRASQDIGNYLSWYQQKLGKSPKLMIHSASNLEVGVPSRFSGSRSGSDYSLTINTLESEDPGIYFCLQHKQFPRTFGGGTKLELK
notes: Murine hybridoma antibody
